Source: publication PMC3983035, “The RNA-Binding Protein QKI Suppresses Cancer-Associated Aberrant Splicing”
Changes are numbered by the printed parent chain.

T1: QKI-5 (His-tagged) (UniProt Q96PU8 1-341)
T1 sequence: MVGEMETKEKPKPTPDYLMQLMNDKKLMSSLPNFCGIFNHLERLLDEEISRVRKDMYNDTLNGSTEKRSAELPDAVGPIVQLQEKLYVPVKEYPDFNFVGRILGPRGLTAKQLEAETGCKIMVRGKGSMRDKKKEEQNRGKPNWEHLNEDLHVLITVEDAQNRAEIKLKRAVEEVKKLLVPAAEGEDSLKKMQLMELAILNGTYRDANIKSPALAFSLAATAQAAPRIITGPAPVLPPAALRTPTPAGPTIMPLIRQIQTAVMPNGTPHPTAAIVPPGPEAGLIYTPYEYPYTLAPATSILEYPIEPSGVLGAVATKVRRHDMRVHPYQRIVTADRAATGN

T2: SF1 (aa 1-361) (UniProt Q15637 1-361)
T2 sequence: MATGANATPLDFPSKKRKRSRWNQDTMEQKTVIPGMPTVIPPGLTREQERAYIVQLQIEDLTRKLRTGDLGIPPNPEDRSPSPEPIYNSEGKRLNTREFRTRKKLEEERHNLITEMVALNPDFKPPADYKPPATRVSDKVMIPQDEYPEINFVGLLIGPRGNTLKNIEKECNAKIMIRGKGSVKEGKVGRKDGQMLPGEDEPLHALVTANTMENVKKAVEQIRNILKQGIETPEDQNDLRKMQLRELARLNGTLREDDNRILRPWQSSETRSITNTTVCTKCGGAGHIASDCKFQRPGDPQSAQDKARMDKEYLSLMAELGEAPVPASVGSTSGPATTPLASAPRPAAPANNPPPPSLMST

B1: NUMB mut2 RNA (ssRNA)
RNA: GGGCACUUGUACACCCUGCAUGAAUUGACUCCAUUGAUGUUGUCUGCUCCCGUUGUAGCGAGUGGCACUGACUCAGCCUUCCAU
B2: NUMB mut1 RNA (ssRNA)
RNA: B1 RNA with G27A

Tests used:
QKI-5 (His-tagged) = molecular target: T1, QKI-5 (His-tagged); experiment: EMSA; 0-2080 nM QKI-5; EMSA: 10 ng 32P-RNA, standard splicing conditions, 30 C, 20 min, then tRNA 5 min; 5% native PAGE; buffer, salt and pH not given; conditions: protein: recombinant; tags: His-tag (pET-28a); reverse primer also encodes C-terminal FLAG; chain copies: 2; label: 32P
SF1 (aa 1-361) = molecular target: T2, SF1 (aa 1-361); experiment: EMSA; 5-10x molar excess; EMSA: 10 ng 32P-RNA, standard splicing conditions, 30 C, 20 min, then tRNA 5 min; 5% native PAGE; buffer, salt and pH not given; conditions: protein: recombinant; tags: N-terminal GST (pGEX-5X-2); label: 32P

Row | Binder | binding result (QKI-5 (His-tagged)) | binding result (SF1 (aa 1-361))
1 | B1 | no binding | 
2 | B2 |  | binds
